Our source for the Kd values is PMC5800599.

Common to all, as to experiment: SPR; Fc immobilised on a CM5 chip by amine coupling (400-1000 RU), mFcγRIV flowed over; Biacore T100; 25°C; 20 mM MOPS, 100 mM sodium chloride, 0.05% P20, 1 μM bovine serum albumin; mean of at least two independent experiments
Assay [1] has as its target mouse IgG2b Fc I300L, complex-type N-glycan (mouse).
Assay [2] deals with mouse IgG2b Fc I300L, truncated (1)GlcNAc N-glycan (mouse).
The target of assay [3] is mouse IgG2b Fc I300L/K326R/D327A, complex-type N-glycan (mouse).
Assay [4] concerns the target mouse IgG2b Fc I300L/K326R/D327A, truncated (1)GlcNAc N-glycan (mouse).
The target of assay [5] is mouse IgG2b Fc, complex-type N-glycan (mouse).
Assay [6] addresses mouse IgG2b Fc, truncated (1)GlcNAc N-glycan (mouse).
Assay [7] addresses mouse IgG2c Fc (residues 224-447), complex-type N-glycan (mouse).
Assay [8] has as its target mouse IgG2c Fc (residues 224-447), truncated (1)GlcNAc N-glycan (mouse).
Assay [9] concerns the target mouse IgG2c Fc L300I, complex-type N-glycan (mouse).
Assay [10] has as its target mouse IgG2c Fc L300I, truncated (1)GlcNAc N-glycan (mouse).
The target of assay [11] is mouse IgG2c Fc L300I/R326K/A327D, complex-type N-glycan (mouse).
The target of assay [12] is mouse IgG2c Fc L300I/R326K/A327D, truncated (1)GlcNAc N-glycan (mouse).

B1: mouse Fc γ receptor IV (receptor)
chain: QAGLQKAVVNLDPKWVRVLEEDSVTLRCQGTFSPEDNSIKWFHNESLIPHQDANYVIQSARVKDSGMYRCQTALSTISDPVQLEVHMGWLLLQTTKWLFQEGDPIHLRCHSWQNRPVRKVTYLQNGKGKKYFHENSELLIPKATHNDSGSYFCRGLIGHNNKSSASFRISLGD
Consider B1, for which the Kd in assay [1] turned out to be 15 nM; in assay [2], 1800 nM; in assay [3], 8 nM; in assay [4], 1300 nM; in assay [5], 18 nM; in assay [6], 2800 nM. Further, the Kd in assay [7] was 12 nM; in assay [8], 600 nM; in assay [9], 9 nM; in [10], 1000 nM; in assay [11] it was 9 nM; in assay [12] it was 1100 nM.

As a reminder, the Kd is the concentration at which binding is half-saturated. A higher Kd goes with a looser complex.
